Square brackets hold non-standard residues; d marks the D form. Nle = CCCC[C@H](N)C(=O)O
Experiments:
[1] = molecular target: T1, MC1-R of B-16 mouse melanoma cells (mouse, UniProt Q01727 1-315); test: assay not described for this value
T1 construct: whole, on cells; Membrane preparation; also called MCR-1

hMC4-R = molecular target: T2, hMC4-R (human, UniProt P32245 1-332); test: assay not described for this value
T2 construct: whole, on cells; Membrane preparation; also called MCR-4
T2 sequence (P32245 whole entry): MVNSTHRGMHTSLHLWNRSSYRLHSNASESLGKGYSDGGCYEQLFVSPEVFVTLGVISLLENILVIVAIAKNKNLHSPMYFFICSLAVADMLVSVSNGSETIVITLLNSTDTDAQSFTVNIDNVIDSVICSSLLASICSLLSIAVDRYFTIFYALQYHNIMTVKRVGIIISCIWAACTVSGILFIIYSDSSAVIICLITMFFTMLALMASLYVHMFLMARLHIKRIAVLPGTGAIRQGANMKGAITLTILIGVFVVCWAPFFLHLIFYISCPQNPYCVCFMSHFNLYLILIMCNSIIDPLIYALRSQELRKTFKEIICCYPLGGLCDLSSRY

T1 sequence (Q01727 whole entry): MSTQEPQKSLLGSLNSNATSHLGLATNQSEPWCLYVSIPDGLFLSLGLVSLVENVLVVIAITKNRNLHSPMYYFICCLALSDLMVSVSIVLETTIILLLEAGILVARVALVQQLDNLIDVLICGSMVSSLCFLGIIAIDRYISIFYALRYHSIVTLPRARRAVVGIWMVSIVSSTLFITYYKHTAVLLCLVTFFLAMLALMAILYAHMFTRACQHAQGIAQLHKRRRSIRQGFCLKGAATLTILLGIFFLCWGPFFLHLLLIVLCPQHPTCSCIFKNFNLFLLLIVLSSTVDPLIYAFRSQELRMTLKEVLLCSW

B1: Ac-Nle-Ala-His-D-Phe-Arg-Trp-NH2 (peptide)
peptide: Ac-[Nle]AH[dF]RW-NH2
notes: Linear parent peptide, not complexed to a metal; also called parent melanocortin peptide
Ki [1]: 100 nM
Ki (hMC4-R): 2000 nM
